T1: LRP2 CR89 V1047D (human, UniProt P98164 1022-1105)
T1 construct: also called YDWR; not shown: N-terminal hexahistidine and S-peptide tag stretch of pET30(+)a
T1 chain: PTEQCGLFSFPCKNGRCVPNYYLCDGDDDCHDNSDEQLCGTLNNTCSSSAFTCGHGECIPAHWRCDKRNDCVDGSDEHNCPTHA

T2: LRP2 CR89 V1047D R1088D (human, UniProt P98164 1022-1105)
T2 construct: also called YDWD; not shown: N-terminal hexahistidine and S-peptide tag stretch of pET30(+)a
T2 chain: T1 chain with R68D

T3: LRP2 CR89 Y1042W R1088D (human, UniProt P98164 1022-1105)
T3 construct: also called WVWD; not shown: N-terminal hexahistidine and S-peptide tag stretch of pET30(+)a
T3 chain: T1 chain with Y22W, D27V, R68D

T4: MegaRAP1 d3 (human, UniProt P30533 235-353)
T4 construct: range 201-319 (mature RAP numbering); d3 of the variant selected on LRP2 CR89; also called RAPv2A d3; RAP v2A; not shown: N-terminal hexahistidine and S-peptide tags of pET30(+)a
T4 sequence (looked up): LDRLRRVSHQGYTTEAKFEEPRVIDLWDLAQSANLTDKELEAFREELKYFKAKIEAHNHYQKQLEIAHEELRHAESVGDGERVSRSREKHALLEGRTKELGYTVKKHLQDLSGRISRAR

B1: RAP-GDNF fusion protein (ligand, UniProt P30533 35-353, looked up)
chain: YSREKNQPKPSPKRESGEEFRMEKLNQLWEKAQRLHLPPVRLAELHADLKIQERDELAWKKLKLDGLDEDGEKEARLIRNLNVILAKYGLDGKKDARQVTSNSLSGTQEDGLDDPRLEKLWHKAKTSGKFSGEELDKLWREFLHHKEKVHEYNVLLETLSRTEEIHENVISPSDLSDIKGSVLHSRHTELKEKLRSINQGLDRLRRVSHQGYSTEAEFEEPRVIDLWDLAQSANLTDKELEAFREELKHFEAKIEKHNHYQKQLEIAHEKLRHAESVGDGERVSRSREKHALLEGRTKELGYTVKKHLQDLSGRISRARSPDKQMAVLPRRERNRQAAAANPENSRGKGRRGQRGKNRGCVLTAIHLNVTDLGLGYETKEELIFRYCSGSCDAAETTYDKILKNLSRNRRLVSDKVGQACCRPIAFDDDLSFLDDNLVYHILRKHSAKRCGCI
notes: Secreted from CHO cells as a disulfide-linked homodimer of about 120 kD
B2: RAP d3 (wild-type third domain of the receptor-associated protein) (ligand, human, UniProt P30533 235-353, looked up)
chain: T4 sequence (looked up) with T13S, K17E, Y49H, K51E, A56K, E70K
notes: range 201-319 (mature RAP numbering); Expressed in E. coli from pET30(+)a; also called wild-type RAP d3; not shown: N-terminal hexahistidine and S-peptide tags of pET30(+)a
B3: LRP2 CR3031 (receptor)
chain: not shown
notes: domain: CR3031; not shown: N-terminal hexahistidine and S-peptide tags of pET30(+)a
B4: LRP2 CR89 R1088D (receptor)
chain: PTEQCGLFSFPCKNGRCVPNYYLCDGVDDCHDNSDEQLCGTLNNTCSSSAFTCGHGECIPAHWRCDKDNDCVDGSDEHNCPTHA
notes: also called YVWD; not shown: N-terminal hexahistidine and S-peptide tag stretch of pET30(+)a

Numbering of substitutions follows the chain as printed.

Experiment [1] has as its target T5, GFRα-1.
T5 construct: Bought reagent; construct not described; also called soluble GFRα-1
Kind of experiment: solid-phase assay, coated RAP-GDNF, serial dilutions of GFRα-1 (FIG. 12). The method, then:
Solid-phase binding assays—Microtiter plates were coated with GDNF or RAP-GDNF in 50 mM sodium carbonate, pH 9.6. The plates were then blocked for 1 hour at room temperature with blocking buffer (Promega) and incubated with serial dilutions of GFRα-1 (0-10 nM) in the presence or the absence of 1 μM RET (2 hours, ambient temperature). Complexes were identified by probing with an anti-GDNF monoclonal antibody (B8, Santa Cruz Biotechriology) and then with anti-mouse […] (Bio-Rad). After adding TMB solution (Bio-Rad), the color development was stopped with HCl and the OD 450 nm was measured using a plate reader. Between steps, the plates were washed three times with DPBS containing 0.1% Tween 20. This method provides a method for quantitating the affinity of RAP-GDNF for GFRα.

Experiment [2] has as its target T5, GFRα-1. In words: solid phase assay, RAP-GDNF concentration varied, OD 450 nm.
For experiment [3], the target named is T6, LRP1 CR3-5 (human).
T6 construct: range 852-973; also called L1 CR3-5; LRP1 CR3-S [sic]
T6 sequence (Q07954 852-973): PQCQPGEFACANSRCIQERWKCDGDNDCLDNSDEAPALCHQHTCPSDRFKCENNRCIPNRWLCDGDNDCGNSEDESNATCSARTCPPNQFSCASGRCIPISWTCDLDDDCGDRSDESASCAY
Kind of experiment: solid-phase assay, coated CR protein. The method, then:
(§1) Wells were washed with TBSTC and bound ligands detected with polyclonal anti-RAP (BP41/42, 1:1,000, BioMarin). Excess primary antibody was removed and wells washed before incubation with the secondary antibody, HRP-conjugated goat anti rabbit IgG (Bio-Rad). After washing, TMB substrate solutions (Bio-Rad) were added to detect HRP. Color development was stopped with 1N HCl. Absorption at 450 nm was measured with a microplate spectrophotometer (Molecular Devices). Data were plotted and Kd values derived by non-linear regression with the assumption of single-site binding (GraphPad Prism).
Next, the binding of RAP d3 and MegaRAP1 d3 proteins to LRP1 CR3-5 and LRP2 CR89 was assessed. […] In all cases, 10 mM EGTA prevented binding of both RAP d3 and MegaRAP1 d3 to CR proteins. Since calcium was the only divalent metal ion present in the binding buffer, this observation is consistent with both RAP d3 and MegaRAP1 d3 binding to calcium-loaded CR pairs. […] Therefore, wild-type RAP d3 and MegaRAP1 d3 have inverted binding preferences for these two receptor fragments.

Experiment [4] has as its target T1, LRP2 CR89 V1047D. In words: solid-phase assay, coated CR protein. The method, then:
as §1
(§2) One premise of this work was that amino acids at A, C, A′ and C′ within the calcium-binding loops of a CR pair were key determinants of binding affinity for RAP and would be similarly important for binding of RAP variants. To test this idea, mutant LRP2 CR89 were prepared in which the native, non-canonical residues at these positions were sequentially substituted with the non-native, canonical residues. As defined above, the A, C, A′, C′ string for LRP2 CR89 is YVWR. Mutants included LRP2 CR89Y1042W (WVWR), LRP2 CR89V1047D (YDWR), LRP2 CR89R1088D (YVWD), LRP2 CR89V1047D R1088D (YDWD), LRP2 CR89 Y1042W V1047D R1088D (WDWD), LRP2 CR89Y1042W V1047D (WDWR), LRP2 CR89Y1042W R1088D (WVWD). Binding to both RAP d3 and MegaRAP1 d3 were measured for each LRP2 CR89 mutant by solid-phase assay. […] The A′ position in LRP2 CR89 is a tryptophan, the canonical residue for wild-type RAP d3 binding, and was not mutated in our studies. […] We did see a small increase in binding of RAP d3 to the WVWD and WDWD combinations at A, C, A′ and C′.

Experiment [5] addresses T2, LRP2 CR89 V1047D R1088D. In words: solid-phase assay, coated CR protein. The method, then:
as §1, §2

The target in experiment [6] is T3, LRP2 CR89 Y1042W R1088D. Kind of experiment: solid-phase assay, coated CR protein. How it is done:
as §1, §2

Experiment [7] concerns the target T6, LRP1 CR3-5. In words: solid-phase assay, coated CR protein (FIG. 4). The method, then: Solid phase binding assays—Purified, refolded CR protein (1 μg) was bound to Nunc Maxisorp™ 96-well plates in TBS pH 8 supplemented with 5 mM CaCl₂ (TBSC) overnight at 4° C. Wells were washed with TBSC and then blocked with TBSC containing 2% bovine serum albumin (BSA). RAP ligands were then incubated with the immobilized receptor at a range of concentrations for 2 hours in the above blocking buffer supplemented with 0.05% Tween-20 at room temperature. Control wells contained no added ligand. As an additional control, to determine whether the absence of calcium affected binding, 10 mM EGTA was included in the incubation medium for some samples. Wells were washed with TBSTC and bound ligands detected with polyclonal anti-RAP (BP41/42, 1:1,000, BioMarin). Excess primary antibody was removed and wells washed before incubation with the secondary antibody, HRP-conjugated goat anti rabbit IgG (Bio-Rad). After washing, TMB substrate solutions (Bio-Rad) were added to detect HRP. Color development was stopped with 1N HCl. Absorption at 450 nm was measured with a microplate spectrophotometer (Molecular Devices). […]
The binding of wild-type RAP d3 to each CR pair or set of overlapping pairs was then measured by solid-phase assay (FIG. 4). […] Binding of RAP d3 to MAT CR12 and CR34, measured in a separate set of experiments, was also undetectable. […]

Experiment [8] concerns the target T6, LRP1 CR3-5. Kind of experiment: solid-phase assay, coated CR protein (same value as Table 1).
In experiment [9] the target is B2. Kind of experiment: solid-phase binding assay: CR protein coated on the plate, d3 ligand at 80 nM, anti-RAP detection, blank-corrected absorbance. The method, then:
(§3) RAP d3, MegaRAP1 d3, VRAP2 d3, MatRAP1d3 and MatRAP2 d3 were each incubated at 80 nM concentrations with LRP1 CR3-5, LRP6 CR12, LRP6 CR23, LRP6 CR1-3, LRP2 CR89, LRP2 CR2728, LRP2 CR3031, LRP2 CR3435, LRP2 CR34-36, VLDLR CR78, VLDLR CR6-8, MAT CR12, MAT CR23 and MAT CR34. Samples were tested twice, in duplicate, and values combined. Means and standard deviations were then calculated. Blank values obtained from wells incubated in the absence of ligand were used to correct absorbance data.
(§4) Solid phase binding assays—Purified, refolded CR protein (1 μg) was bound to Nunc Maxisorp™ 96-well plates in TBS pH 8 supplemented with 5 mM CaCl₂ (TBSC) overnight at 4° C. Wells were washed with TBSC and then blocked with TBSC containing 2% bovine serum albumin (BSA). RAP ligands were then incubated with the immobilized receptor at a range of concentrations for 2 hours in the above blocking buffer supplemented with 0.05% Tween-20 at room temperature. Control wells contained no added ligand. As an additional control, to determine whether the absence of calcium affected binding, 10 mM EGTA was included in the incubation medium for some samples. Wells were washed with TBSTC and bound ligands detected with polyclonal anti-RAP (BP41/42, 1:1,000, BioMarin). Excess primary antibody was removed and wells washed before incubation with the secondary antibody, HRP-conjugated goat anti rabbit IgG (Bio-Rad). After washing, TMB substrate solutions (Bio-Rad) were added to detect HRP. Color development was stopped with 1N HCl. Absorption at 450 nm was measured with a microplate spectrophotometer (Molecular Devices). Data were plotted and Kd values derived by non-linear regression with the assumption of single-site binding (GraphPad Prism).
(§5) The apparent dissociation constant for binding of VRAP1d3 to VLDLR CR78 was determined to be […]. We then compared binding of RAP d3, MegaRAP1 d3, VRAP1d3, MatRAP1d3 and MatRAP2 d3, each at a concentration of 80 nM, to fourteen CR pairs or triplets, including LRP1 CR3-5, LRP2 CR89, LRP2 CR2728, LRP2 CR3031, LRP2 CR34-36, LRP2 CR3536, VLDLR CR78, VLDLR CR6-8, LRP6 CR1-3, LRP6 CR12, LRP6 CR23, MAT CR12, MAT CR23 and MAT CR34 (FIG. 7).

In experiment [10] the target is T4, MegaRAP1 d3. The description is as above. The method, then:
as §3, §4, §5

In experiment [11] the target is T4, MegaRAP1 d3. In words: solid-phase assay, coated CR protein. How it is done: as §1, §2

As usually defined, the Kd is a measure of binding affinity in units of concentration. The EC50 (read off the curve) is the concentration giving half of the maximal effect. Turning to B1, the equilibrium dissociation constant (Kd) in experiment [1] was around 5 ng/mL. Besides, the half-maximal effective concentration (EC50 (read off the curve)) in [2] was around 2 ng/mL.
Take B2: the “% max binding” value in experiment [3] was determined as 76%. Also, the values for the dissociation constant (Kd) in experiment [3], in [7] and in [8] were 16 nM, 11 nM and 16 nM, respectively. Further, the “% max bind” value in [4] came out at 6%; in experiment [5], 6%; in experiment [6] it was 16%.
For the molecule B3, the binding result in experiment [9] and in experiment [10] was “no binding (tested: 80 nM)” each time.
B4: the dissociation constant Kd in experiment [11] was 78 nM.

Values taken from patent US20090281024A1 (RAPTOR PHARMACEUTICALS, published 2009).
